The values below come from the supplement of paper PMC10567573.

B1: KRT13 (parent)
chain: TPGIDLTRVLAEMREQYEAMAERN
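Also: lentivirally expressed fusions sorted by FACS into six bins by GFP to DsRed ratio, PSI derived from sequencing read proportions per bin multiplied by bin number.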

Variants of B1 are the subject of this data set. As to the kind of experiment: protein stability index of a GFP-peptide fusion (GPS, HEK-293T) (PSI 1-6); higher = more stable. The settings on record: c terminus: a fixed tail appended.
In the case of TPGIDLTRVLAEMREQYQAMAERN [E18Q], the protein stability index was determined as 3.13.
The figure for TPGIDLTRVLAEMREQYIAMAERN [E18I] is 3.98; for TPGIDLTRVLAEMREQYRAMAERN [E18R] it is 3.47; for TPGIDLTRVLAEMREQYAAMAERN [E18A] it is 4.23.
In the case of TPGIDLTRVLAEMREQYWAMAERN [E18W], the protein stability index was 3.62.
The figure for TPGIDLTRVLAEMREQYGAMAERN [E18G] is 3.88.
Consider TPGIDLTRVLAEMREQYYAMAERN [E18Y], for which the protein stability index stood at 3.87.
To TPGIDLTRVLAEMREQYMAMAERN [E18M] belongs 3.72.
The figure for TPGIDLTRVLAEMREQYPAMAERN [E18P] is 2.72; for TPGIDLTRVLAEMREQYEAFAERN [M20F] it is 3.42.
To TPGIDLTRVLAEMREQYEAGAERN [M20G] belongs 4.22.
Regarding TPGIDLTRVLAEMREQYEAAAERN [M20A], the protein stability index was determined as 4.74.
The figure for TPGIDLTRVLAEMREQYEACAERN [M20C] is 4.1; for TPGIDLTRVLAEMREQYEAEAERN [M20E] it is 4.49.
To TPGIDLTRVLAEMREQYEADAERN [M20D] belongs 4.79.
To TPGIDLTRVLAPMREQYEAMAERN [E12P] belongs 4.36; to TPGIDLTRVLAKMREQYEAMAERN [E12K], 2.23.
Take TPGIDLTRVLAWMREQYEAMAERN [E12W]: the protein stability index was 3.06.
The figure for TPGIDLTRVLARMREQYEAMAERN [E12R] is 1.05; for TPGIDLTRVLANMREQYEAMAERN [E12N] it is 3.87.
The figure for TPGIDLTRVLAFMREQYEAMAERN [E12F] is 3.42; for TPGIDLTRVLAAMREQYEAMAERN [E12A] it is 3.15.
The figure for TPGIDLTRVLATMREQYEAMAERN [E12T] is 4.09.
Consider TPGIDLTRVLAIMREQYEAMAERN [E12I], for which the protein stability index is 2.72.
For the variant TPGIDLTRVLAMMREQYEAMAERN [E12M], the protein stability index worked out at 2.96.
The figure for TPGIDLTRVLAYMREQYEAMAERN [E12Y] is 3.37; for TPGIDLTRVLAHMREQYEAMAERN [E12H] it is 3.08.
As to TPGIDLTRVLACMREQYEAMAERN [E12C], the protein stability index amounted to 2.66.
To TPGIDLTRVLAQMREQYEAMAERN [E12Q] belongs 4.76; to TPGIDLTRLLAEMREQYEAMAERN [V9L], 2.25; to TPGIDLTRPLAEMREQYEAMAERN [V9P], 4.49.
To TPGIDLTRKLAEMREQYEAMAERN [V9K] belongs 4.34; to TPGIDLTRELAEMREQYEAMAERN [V9E], 4.71.
The figure for TPGIDLTRILAEMREQYEAMAERN [V9I] is 3.06.
Regarding TPGIDLTRQLAEMREQYEAMAERN [V9Q], the protein stability index stood at 4.41.
To TPGIDLTRMLAEMREQYEAMAERN [V9M] belongs 3.94; to TPGIDLTRCLAEMREQYEAMAERN [V9C], 4.47.
To TPGIDLTRRLAEMREQYEAMAERN [V9R] belongs 4.56; to TPGIDLTRDLAEMREQYEAMAERN [V9D], 4.54; to TPGIDLTRSLAEMREQYEAMAERN [V9S], 3.41.
The figure for TPGIDLTRNLAEMREQYEAMAERN [V9N] is 4.86; for TPGIDLTRTLAEMREQYEAMAERN [V9T] it is 3.85.
Regarding TPGIDLTRHLAEMREQYEAMAERN [V9H], the protein stability index worked out at 4.47.
On to TPGIDLTRYLAEMREQYEAMAERN [V9Y], for which the protein stability index came out at 3.01.
Take TPGIDLTQVLAEMREQYEAMAERN [R8Q]: the protein stability index was 4.15.
The figure for TPGIDLTYVLAEMREQYEAMAERN [R8Y] is 3.39.
To TPGIDLTNVLAEMREQYEAMAERN [R8N] belongs 4.11; to TPGIDLTPVLAEMREQYEAMAERN [R8P], 3.61; to TPGIDLTWVLAEMREQYEAMAERN [R8W], 3.25.
The figure for TPGIDLTRVLAEMREQHEAMAERN [Y17H] is 4.76; for TPGIDLTRVLAEMREQAEAMAERN [Y17A] it is 5.29.
TPGIDLTRVLAEMREQVEAMAERN [Y17V]: the protein stability index came out at 4.29.
To TPGIDLTRVLAEMREQDEAMAERN [Y17D] belongs 5.4; to TPGIDLTRVLAEMREQMEAMAERN [Y17M], 4.3; to TPGIDLTRVLAEMREQWEAMAERN [Y17W], 5.02.
The figure for TPGIDLTRVLAEMREQEEAMAERN [Y17E] is 4.6.
The figure for TPGIDLTRVLAEMREQGEAMAERN [Y17G] is 6; for TPGIDLTRVLAEMREQCEAMAERN [Y17C] it is 4.23; for TPGIDLTRVLAEMREQTEAMAERN [Y17T] it is 5.8.
In the case of TPGIDLTRVLAEMREQREAMAERN [Y17R], the protein stability index came out at 4.75.
The figure for TPGIDLTRVLAEMREQKEAMAERN [Y17K] is 5.5; for TPGIDLTRVLAEMREQNEAMAERN [Y17N] it is 4.56; for TPGIDLTRVVAEMREQYEAMAERN [L10V] it is 4.8.
Regarding TPGIDLTRVEAEMREQYEAMAERN [L10E], the protein stability index is 5.2.
The figure for TPGIDLTRVTAEMREQYEAMAERN [L10T] is 5.01; for TPGIDLTRVKAEMREQYEAMAERN [L10K] it is 4.14; for TPGIDLTRVNAEMREQYEAMAERN [L10N] it is 5.71.
Take TPGIDLTRVMAEMREQYEAMAERN [L10M]: the protein stability index amounted to 4.48.
To TPGIDLTRVGAEMREQYEAMAERN [L10G] belongs 5.23; to TPGIDLTRVHAEMREQYEAMAERN [L10H], 4.95; to TPGIDLTRVDAEMREQYEAMAERN [L10D], 5.17.
To TPGIDLTRVFAEMREQYEAMAERN [L10F] belongs 4.55.
To TPGIDLTRVYAEMREQYEAMAERN [L10Y] belongs 4.4; to TPGIDLTRVSAEMREQYEAMAERN [L10S], 4.87.
Take TPGIDLTRVRAEMREQYEAMAERN [L10R]: the protein stability index is 4.12.
Turning to TPGIDLTRVIAEMREQYEAMAERN [L10I], the protein stability index worked out at 3.25.
To TPGIDLTRVQAEMREQYEAMAERN [L10Q] belongs 5.15.
To TPGIDLTRVPAEMREQYEAMAERN [L10P] belongs 5.31; to TPGIDLTRVCAEMREQYEAMAERN [L10C], 4.22; to TPGIDLTRVWAEMREQYEAMAERN [L10W], 4.09.
Turning to TPGIDLTRVLDEMREQYEAMAERN [A11D], the protein stability index was 4.01.
To TPGIDLTRVLNEMREQYEAMAERN [A11N] belongs 3.77; to TPGIDLTRVLLEMREQYEAMAERN [A11L], 3.51.
To TPGIDLTRVLMEMREQYEAMAERN [A11M] belongs 2.79.
As to TPGIDLTRVLVEMREQYEAMAERN [A11V], the protein stability index is 3.79.
The figure for TPGIDLTRVLKEMREQYEAMAERN [A11K] is 4.23; for TPGIDLTRVLTEMREQYEAMAERN [A11T] it is 3.88.
The figure for TPGIDLTRVLSEMREQYEAMAERN [A11S] is 4.61; for TPGIDLTRVLPEMREQYEAMAERN [A11P] it is 4.65.
The figure for TPGIDLTRVLYEMREQYEAMAERN [A11Y] is 3.74.
For TPGIDLTRVLQEMREQYEAMAERN [A11Q], the protein stability index stood at 2.85.
In the case of TPGIDLTRVLFEMREQYEAMAERN [A11F], the protein stability index was 3.7.
To TPGIDLTRVLHEMREQYEAMAERN [A11H] belongs 3.95; to TPGIDLTRVLIEMREQYEAMAERN [A11I], 3.51.
